Experiment [1] concerns the target T7 helicase-primase gp4A' (wild-type helicase) (bacteriophage T7) (UniProt P03692). The experiment is described as follows: single-molecule optical trapping (DNA unzipping force); helicase and DNAP in solution with a tethered forked dsDNA, 2 mM dTTP; after helicase unwound ~1000 bp under 9 pN the remaining DNA was unzipped mechanically at 2000 bp/s; a force-rise above the naked DNA baseline shows protein bound across the fork junction; 50 mM Tris-HCl pH 7.5, 40 mM NaCl, 10% glycerol; 25 ± 1 °C.

Experiment [2] has the same target.

For “T7 DNA polymerase (gp5/trx complex), exo- gp5 (D5A, D7A) with E. coli thioredoxin (from UniProt P00581 1-704; P0AA25 1-109)”, in experiment [1], the peak of the force-rise was determined as 26 pN and the percent of traces with a force-rise above the naked DNA baseline was 75%. In experiment [2], the replication re-initiation efficiency after collision with a stalled E. coli TEC, normalised against the TEC formation efficiency stood at 15%; the traces that passed a stalled co-directional E. coli TEC and went over to unwinding with leading-strand synthesis, 0.5 mM dNTP each, 5 pN was found to be 12%.
